Reference: the supplement of paper PMC9170038

Test system: MS2 coat protein
Experiment: apparent KD of MS2 coat protein; designed switch direction (-1 OFF switch, 1 ON switch): -1; higher = weaker reporter binding
In short: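 An oligonucleotide input, 200 uM small-molecule ligand, or no input was present during titration of SNAP-549-labelled MS2 coat protein, which was doubled from 0.7 or 1.5 nM to 3 µM. Designed RNA switches had been transcribed on Illumina chips by stalled E. coli RNA polymerase. Apparent KD per design is the median over clusters of curves fitted to normalised cluster fluorescence.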

[1] = Eterna round: R95, input ligand: microRNA oligo, concentration not stated
[2] = input ligand: microRNA oligo, concentration not stated
[3] = Eterna round: R95, input ligand: FMN 200 uM
[4] = Eterna round: R95, input ligand: none

| Sequence | apparent KD of MS2 coat protein (input ligand: FMN 200 uM) [nM] | apparent KD of MS2 coat protein (input ligand: none) [nM] | apparent KD of MS2 coat protein [1] [nM] | apparent KD of MS2 coat protein [2] [nM] | apparent KD of MS2 coat protein [3] [nM] | apparent KD of MS2 coat protein [4] [nM] |
| --- | --- | --- | --- | --- | --- | --- |
| UUCACAUGGACAUGAGAUCACAUGAGGAUCACCCAUGUGAAUAACAAGCUUUUUGCUCGUCUUAUGUCCAAUAAUAU [Stov1/14-C3] (Eterna round: R97, puzzle: Sensor, turn-off variant 1) | 13.1 | 13.1 | – | – | – | – |
| AUCAUGUCAGGAUAUGUGAUAUGGAUCUUCGGAUCAAGUUCACAGAAGGGACAUGAGGAUCACCCAUGUCGAAC [Ex4-3: 30] (puzzle: Exclusion 4) | – | – | 40.1 | – | – | – |
| ACAUGAGGAUCACCCAUGUUUGGCUGGUUUUCUCCGGCUGUCGAGGAUAUAGUACGGUAUCCGCGCUAGAAGGUGAGGGCCGGC [Aenatbe mod 1] (Eterna round: R96, puzzle: Exclusion NG 3) | 15.5 | 15.8 | – | 14.3 | – | – |
| UUAAGUAUAGAGGAUAUAUAAUAUUUAUUAACUAUAGAAGGCUAUACAUGAGGAUCACCCAUGUAUAUUGGGAU [JR_Ex6_Sub067] (Eterna round: R97, puzzle: Exclusion 6) | 59.1 | 41 | – | – | – | – |
| AGUAGUAGUAUCCGUUCUUACAUGAGGAUCACCCAUGUUUCUAGACGUGCACGCGAUGCUCGUCAGACUACCAGAUG [salish99_TOv1_r3_054] (puzzle: Sensor v3, turn-off variant 1) | – | – | 72.3 | – | 61.2 | 68.9 |
| GGCAUCGGAGGAUAUACUUAUGGUGAUACCCGAAGCUUUCUACUUGAGGAUCACCCAAGUAGAAGGCCGAUGCC [jl-ex2.4.81 ViennaUCT mod] (Eterna round: R97, puzzle: Exclusion 2) | 11.7 | 12.6 | – | – | – | – |
| ACAUGUCAUCGAGGAUAUUGGACACAUGAGGAUCACCCAUGUACUCGGAUGCUCUAGCAUGAGUUCGAGAAGGCGAUGUACAUU [Ex NG2 #79] (Eterna round: R96, puzzle: Exclusion NG 2) | 1350 | 593 | – | 234 | – | – |
| CUUUUGUGAGGAUAUCAGUAGUAAAAAAAUAAAAUUACUACUGAGAAGGUACAUGAGGAUCACCCAUGUUCCUC [salish99_ex4_r3_031] (puzzle: Exclusion 4) | – | – | 15.1 | – | – | – |
| GGUUGACAUGAGGAUCACCCAUGUGAGGAUAUGCGAGAGAAAAAAGUGAGGAAGAAGAGCAGAAGGCGCUGUCG [salish99-ex1_r3_012] (puzzle: Exclusion 1) | – | – | 134 | – | 99.4 | 117 |
| GUCCUCAUGACAUGAGGAUCACCCAUGUAUUAUUUGUUAACUGAGGAUAUACUCUUAUUUUUUAUGUAGAAGGCAGAUUUGUUC [JR_ExcNG3_Sub021] (Eterna round: R96, puzzle: Exclusion NG 3) | 43.1 | 31.2 | – | 27.7 | – | – |
| GUCAGCUCGUGAGGAUAUACAUGAGGAUCACCCAUGUGAUCAAUAGCAGCUUCGGCUGCAUACAUGUAGAAGGCACGAGCUGAU [ENG2/6-A2] (Eterna round: R96, puzzle: Exclusion NG 2) | – | – | – | 27.5 | – | – |
| UUCUUGCGCGUGAGGAUAUGCUGAUCCCAGGAUUAGCAGAAGGCACAUGAGGAUCACCCAUGUCCAACUUGUCU [LRO-BmodExc4-15- Bluer = mod of Colors by Tatyana Zabanova] (Eterna round: R97, puzzle: Brourd's mod of Exclusion 4) | 51.4 | 38.6 | – | – | – | – |
| AGAUGUAGAUACCGAUCCUACAUGAGGAUCACCCAUGUAGCUAGACGUGCACGCGUAGCUCGUCAGACUACCAGAAG [salish99_TOv1_r3_085] (Eterna round: R96, puzzle: Sensor v3, turn-off variant 1) | 461 | 449 | – | 253 | – | – |
| UUGUUACAUGAGGAUCACCCAUGUGAGGAUAUGGUUCAGUACUGUAAUGUAAAGUACUCCAGAAGGCACAUGUU [1st #28] (Eterna round: R97, puzzle: Exclusion 1) | 693 | 264 | – | – | – | – |
| GAGAAACAUGAGGAUCACCCAUGUGAGGAUAUGUGAGACUAAAGCGCGCAGGCUAAGGACAGAAGGCACAAGGA [Excls1-Ia] (puzzle: Exclusion 1) | – | – | 42.6 | – | 57.5 | 53 |
| GUCAUGUCAGGAUAUGCUUAUGAUGGGUGCUCAGACAUGAUGCAGAAGGGACAUGAGGAUCACCCAUGUACUGA [EX4 #15] (Eterna round: R97, puzzle: Exclusion 4) | 84.8 | 68.3 | – | – | – | – |
| GACAAAGGAGGAUAUACAAUGUCCUGGUCUAACCCGAUGGCACAUGAGGAUCACCCAUGUAGAAGGCCUUUGCG [Eternabot (L1) Solution 4] (Eterna round: R97, puzzle: Exclusion 2) | 39 | 17.6 | – | – | – | – |

| Sequence | apparent KD of MS2 coat protein (input ligand: FMN 200 uM) [nM] | apparent KD of MS2 coat protein (input ligand: none) [nM] | apparent KD of MS2 coat protein [1] [nM] | apparent KD of MS2 coat protein [2] [nM] | apparent KD of MS2 coat protein [3] [nM] | apparent KD of MS2 coat protein [4] [nM] |
| --- | --- | --- | --- | --- | --- | --- |
| GGAUAAAACCGAGGAUAUACGUAUCACUAACGAGUAGAAGGCGGACAUGAGGAUCACCCAUGUGAGUUCUCAAUAAGAAACACG [Prohibition 64 - Jieux - Exclusion NG 1] (Eterna round: R96, puzzle: Exclusion NG 1) | 519 | 174 | – | 85.1 | – | – |
| UAAUACAAGUAAGGAUUCUACAUGAGGAUCACCCAUGUGCUCGUCUUAUAAAGUACUAUCACGAAAGUGAUAGUACU [Mat - Sensor v3 - turn-off var 1 - Eli Mod - D100] (puzzle: Sensor v3, turn-off variant 1) | – | – | 199 | – | 21.8 | 22.5 |
| GGUCCACAUGAGGAUCACCCAUGUUAGGAUAUCUCGUCCGAGCAGUUAUGGGCCGGGCAGAGAAGGAAUGUGAA [Orbibibi] (puzzle: Exclusion 1) | – | – | 25.7 | – | – | – |
| UAAGUUUUGGUAGGAUAUACUUUAAAUUUCUCUAUCCAUACAUGAGGAUCACCCAUGUUUACAUUGUAGAAGGACCUUUAUGUU [JR_ExcNG2_Sub057] (Eterna round: R96, puzzle: Exclusion NG 2) | – | – | – | 30.2 | – | – |
| CAAAAGCUAGGAUAUACAUGAGGAUCACCCAUGUAUAGGUGGGCAGUUCUUAUCAAACGUAGAAGGAGCAUAAA [Uslaisan] (puzzle: Exclusion 3) | – | – | 17.5 | – | 39.2 | 16.6 |
| GCGAAAACAAGCAAGUGAAACAUGAGGAUCACCCAUGUCCUCAUUUGCUCGUCUUAUAAAAGCUAUCGAAAGAUAGC [Mat - Sensor v3 - turn-off var 1 - Eli Mod - D49] (puzzle: Sensor v3, turn-off variant 1) | – | – | 205 | – | 9.41 | 9.78 |
| UCGGCGCGAGGAUAUGCGGCUGGUGCUUCGGGCUCUGGCGUACAUGAGGAUCACCCAUGUAGAAGGCGCGCCGC [Apr-15 SS2-42] (puzzle: Exclusion 2) | – | – | 10.5 | – | – | – |
| GAAAAGAUAGGAUAUACAAGAAGAAAAGAAAAGAAAAGAAAACAUGAGGAUCACCCAUGUAGAAGGAUCAAAAG [Default title] (puzzle: Exclusion 2) | – | – | 13.5 | – | 15 | 15.5 |
| CCGCAUAAGCAGGAUAUCGUAUCGGAAACGAUACGAGAAGGGUUUACAUGAGGAUCACCCAUGUUCCUUAGCGG [Mat - Exclusion 6 - Eli Mod - D100] (puzzle: Exclusion 6) | – | – | 31.5 | – | 49.9 | 32.6 |
| AUGGGUACUUUCGGAGCGACAUGAGGAUCACCCAUGUAUAUUGAGGAUAUCCACUGCUAAGGACGGGAGAAGGCAGUGUACUGU [Ex NG3 #82] (Eterna round: R96, puzzle: Exclusion NG 3) | 73.3 | 54.2 | – | 42.9 | – | – |
| AUGAGGUUAGGAUAUACAUGAGGAUCACCCAUGUUGAAAGGAUAGAUAAGAAAAGAUAGUAGAAGGAACAAAGA [JR_Exclu3_Sub052] (puzzle: Exclusion 3) | – | – | 34.9 | – | 34.4 | 39.2 |
| GCUAACCGAGGAUAUACAUGAGGAUCACCCAUGUUCGAUAUCCUCAUUAGAACUACAUGUAGAAGGCGGUAAGC [Eternabot (Original) Solution 2] (Eterna round: R97, puzzle: Exclusion 3) | 15.2 | 13.8 | – | – | – | – |
| UACCUGAGGCUUUGCUUUAGGCUUACAUGAGGAUCACCCAUGUAGGAUAUGGUAGGCUUUGCUUACCAGAAGGACAUGGAAAUU [Mat - Exclusion NG 3 - Mod of JL - D20] (Eterna round: R96, puzzle: Exclusion NG 3) | 349 | 70.7 | – | 63 | – | – |
| UACAUGAGGAUCACCCAUGUUUUGUCGUGUAUGGUAAUAAUCUAGGAUAUCAAUUUAUUUAUUUAUGAGAAGGAGAAUAAUAAA [JMF's solution 4] (Eterna round: R96, puzzle: Exclusion NG 3) | 67.1 | 61.7 | – | 55.9 | – | – |
| CGACCCAUCAUAGGAUAUCACAGCACGGGAGAAAGUCUGAGGCGUCAACAUGAGGAUCACCCAUGUGAGAAGGAUGGUGGGCAG [Eternabot solution 17] (Eterna round: R96, puzzle: Exclusion NG 2) | 120 | 162 | – | 184 | – | – |
| UUAAUGGUUGUGAGGAUAUCGGAUAGAUAGAUAUUCGAGAAGGCACAUGAGGAUCACCCAUGUGUGAUCAGAAA [Brourd's EX4 #61] (Eterna round: R97, puzzle: Brourd's mod of Exclusion 4) | 410 | 202 | – | – | – | – |
